# Results published in the supplement of paper PMC7877785.
# ± gives the uncertainty stated by the source.
# Experiment: self-splicing fitness, log relative to wild type (ln ratio); higher = more splicing; Tetrahymena group I intron in knt gene, E. coli kanamycin selection, DiMSum; sequences stand for … in CUCUCU…GGAGGGAAAAGUUAUCAGGCAUGCACCUGGUAGCUAGUCUUUAAACCAAUAGAUUGCAUCGGUUUAAAAGGCAAGACCGUCAAAUUGCGGGAAAGGGGUCAACAGCCGUUCAGUACCAAGUCUCAGGGGAAACUUUGAGAUGGCCUUGCAAAGGGUAUGGUAAUAAGCUGACGGACAUGGUCCUAACCACGCAGCCAAGUCCUAAGUCAACAGAUCUUCUGUUGAUAUGGAUGCAGUUCACAGACUAAAUGUCGGUCGGGGAAGAUGUAUUCUUCUCAUAAGAUAUAGUCGGACCUCUCCUUAAUGGGAGCUAGCGGAUGAAGUGAUGCAACACUGGAGCCGCUGGGAACUAAUUUGUAUGCGAAAGUAUAUUGAUUAGUUUUGGAGUACUCGUGGUCG
# Outline: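 Pooled colonies went to amplicon sequencing on an Illumina HiSeq 2500 after six replicate transformations. The plates were LB agar with 100 μg/mL carbenicillin, 50 μM IPTG and 0.2% rhamnose, with or without 25 μg/mL kanamycin, incubated overnight at 37°C or 30°C. The E. coli BL21(DE3) library had all eight P1ex-region intron nucleotides randomised, the intron placed in the knt kanamycin-resistance gene on pET-22b(+). DiMSum fitness is the error-weighted combination of replicate fold changes, kanamycin against none, normalised to wild type.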
Sequence,self-splicing fitness (ln) (30 °C),self-splicing fitness (ln) (37 °C)
UUGAAGCAAUAUUACGUGCC,-2.27 ± 0.15,-0.402 ± 0.16
AAUUAGCAAUAUUACGUAAU,-1.92 ± 0.12,-0.218 ± 0.15
GGUAAGCAAUAUUACGACUC,0.295 ± 0.12,-0.605 ± 0.18
UUCUAGCAAUAUUACGUGGG,-3.08 ± 0.16,-2.39 ± 0.15
UGUAAGCAAUAUUACGGUUU,-2.96 ± 0.16,-1.68 ± 0.18
CGCAAGCAAUAUUACGUGUC,-2.39 ± 0.12,-2.68 ± 0.16
CUUUAGCAAUAUUACGAUUG,-0.504 ± 0.12,0.118 ± 0.17
AUUGAGCAAUAUUACGUCUA,-2.12 ± 0.17,-1.77 ± 0.21
CUAUAGCAAUAUUACGAAUU,-2.02 ± 0.39,-2.26 ± 0.46
UCAGAGCAAUAUUACGUAGA,-0.896 ± 0.075,0.113 ± 0.12
AUAUAGCAAUAUUACGGGCA,-1.67 ± 0.17,-1.29 ± 0.19
UCCCAGCAAUAUUACGUUUC,-4.35 ± 0.34,-2.4 ± 0.28
GAGUAGCAAUAUUACGAUCG,-1.06 ± 0.11,-0.986 ± 0.12
GACUAGCAAUAUUACGGGUG,-1.25 ± 0.078,-0.949 ± 0.07
GUGGAGCAAUAUUACGAUUG,-1.98 ± 0.39,–
AAAAAGCAAUAUUACGACGC,-0.27 ± 0.086,-0.264 ± 0.1
ACCAAGCAAUAUUACGCAUA,-1.77 ± 0.068,-1.44 ± 0.073
UGCCAGCAAUAUUACGUCCA,-0.0851 ± 0.076,0.335 ± 0.09
CGAUAGCAAUAUUACGUCUG,0.295 ± 0.061,0.0438 ± 0.072
CGUUAGCAAUAUUACGGAAC,-3.05 ± 0.48,-2.4 ± 0.41
UUAGAGCAAUAUUACGAGUA,-3.31 ± 0.29,-2.1 ± 0.19
GAAGAGCAAUAUUACGCAGG,-1.89 ± 0.32,–
GCCGAGCAAUAUUACGUAGC,-2.02 ± 0.12,-1.84 ± 0.14
UCCCAGCAAUAUUACGAAGC,-3.98 ± 0.42,-1.71 ± 0.24

Sequence,self-splicing fitness (ln) (30 °C),self-splicing fitness (ln) (37 °C)
CCUAAGCAAUAUUACGCUGA,-2.63 ± 0.21,-1.96 ± 0.32
CGCCAGCAAUAUUACGUCUU,-3.58 ± 0.25,-1.45 ± 0.2
AAUGAGCAAUAUUACGAUAG,-3.68 ± 0.27,-2.04 ± 0.34
GGUGAGCAAUAUUACGGCCA,-1 ± 0.26,-0.395 ± 0.17
GUUUAGCAAUAUUACGUUCA,-0.239 ± 0.15,-0.156 ± 0.13
CGAGAGCAAUAUUACGGGCG,-2.3 ± 0.14,-1.39 ± 0.18
AGUCAGCAAUAUUACGCGGG,-2.8 ± 0.16,-1.06 ± 0.2
CCAGAGCAAUAUUACGACGG,-2.88 ± 0.18,-2.02 ± 0.28
GUCUAGCAAUAUUACGCUUA,-0.87 ± 0.077,0.645 ± 0.097
GCUAAGCAAUAUUACGCUAC,-2.37 ± 0.15,-2.44 ± 0.26
UUCUAGCAAUAUUACGGGCU,-3.73 ± 0.36,-3.76 ± 0.36
UAUGAGCAAUAUUACGCUGA,-2.75 ± 0.33,-1.13 ± 0.3
ACGGAGCAAUAUUACGCUUC,-2.92 ± 0.21,-2.81 ± 0.23
UCGAAGCAAUAUUACGUUCU,-1.72 ± 0.091,-1.53 ± 0.13
AUUCAGCAAUAUUACGCGAA,-1.9 ± 0.15,-1.73 ± 0.17
GUAUAGCAAUAUUACGUGUG,-3.28 ± 0.14,-2 ± 0.13
GUGCAGCAAUAUUACGCUCU,-1.77 ± 0.14,-0.404 ± 0.15
GAAAAGCAAUAUUACGAAAC,-2.88 ± 0.14,-0.0376 ± 0.11
AUUCAGCAAUAUUACGAUUA,-0.138 ± 0.097,0.146 ± 0.089
GCCAAGCAAUAUUACGGGGA,-0.604 ± 0.065,0.0408 ± 0.085
GAGCAGCAAUAUUACGUUCG,-1.51 ± 0.097,-0.474 ± 0.098
CGUUAGCAAUAUUACGGCGC,–,-2.24 ± 0.32
UGCUAGCAAUAUUACGAGGA,-2.99 ± 0.26,-1.62 ± 0.17
GUAGAGCAAUAUUACGUACU,-2.23 ± 0.24,-1.92 ± 0.24
